According to publication PMC7468127, “Structural basis of redox modulation on chloroplast ATP synthase” (Communications Biology, 2020):

Experiments:
cryo-EM structure = biological target: the molecule itself; experiment: cryo-EM structure
[1] = biological target: T1, chloroplast ATP synthase (CF1FO) γ subunit (Spinacia oleracea, UniProt P05435 42-364, disulfide γCys240-γCys246 in the oxidized (IBZ) sample; free cysteines in the reduced (DTT) sample); experiment: cryo-EM structure; details: both partners purified
T1 construct: ATP synthase gamma chain, chloroplastic, Spinacia oleracea; endogenous subunit of the purified complex; One molecule for both redox states; also called central shaft γ subunit; source: purified from spinach leaves as part of the CF1FO complex (ammonium sulfate, sucrose gradient, anion exchange, SEC)
T1 sequence (looked up): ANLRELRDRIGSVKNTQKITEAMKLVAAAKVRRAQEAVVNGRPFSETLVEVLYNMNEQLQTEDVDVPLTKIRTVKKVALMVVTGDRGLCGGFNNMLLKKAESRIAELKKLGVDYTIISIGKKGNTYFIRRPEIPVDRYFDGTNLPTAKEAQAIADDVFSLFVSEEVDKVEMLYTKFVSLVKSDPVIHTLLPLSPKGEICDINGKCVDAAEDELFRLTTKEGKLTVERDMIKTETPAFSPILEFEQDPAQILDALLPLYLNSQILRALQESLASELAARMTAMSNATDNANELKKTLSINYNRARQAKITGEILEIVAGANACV

Binder | stoichiometry N (cryo-EM structure) | binding result [1]
chloroplast ATP synthase (CF1FO) subunit c (c14 ring) (natural protein, Spinacia oleracea, UniProt P69447 1-81, looked up, ATP synthase subunit c, chloroplastic, Spinacia oleracea; endogenous subunit of the purified complex; also called c ring; c-ring rotor; source: purified from spinach leaves as part of the CF1FO complex (ammonium sulfate, sucrose gradient, anion exchange, SEC); copies: 14) MNPLIAAASVIAAGLAVGLASIGPGVGQGTAAGQAVEGIARQPEAEGKIRGTLLLSLAFMEALTIYGLVVALALLFANPFV | 14 | 
chloroplast ATP synthase (CF1FO) ε subunit (natural protein, Spinacia oleracea, UniProt P00833 1-134, looked up, ATP synthase epsilon chain, chloroplastic, Spinacia oleracea; endogenous subunit of the purified complex; source: purified from spinach leaves as part of the CF1FO complex (ammonium sulfate, sucrose gradient, anion exchange, SEC)) MTLNLCVLTPNRSIWNSEVKEIILSTNSGQIGVLPNHAPTATAVDIGILRIRLNDQWLTLALMGGFARIGNNEITILVNDAERGSDIDPQEAQQTLEIAEANLRKAEGKRQKIEANLALRRARTRVEASNTISS |  | binds
